We go through 2 molecules from patent publication US20110064746A1 (published 2011).

In the test the target is T1, recombinant HMGB-1 (Homo sapiens (Human), UniProt P09429 1-215).
T1 construct: also called recombinant HMGB1 protein; recombinant HMGB-1 obtained from R&D system
T1 sequence: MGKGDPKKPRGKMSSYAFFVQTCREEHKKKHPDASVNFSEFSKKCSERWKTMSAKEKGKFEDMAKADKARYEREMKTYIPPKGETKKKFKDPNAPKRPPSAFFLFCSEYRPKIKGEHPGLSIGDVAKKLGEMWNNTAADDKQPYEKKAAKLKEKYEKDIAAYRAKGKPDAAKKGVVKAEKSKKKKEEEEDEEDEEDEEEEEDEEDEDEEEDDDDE
Briefly: SPR, BIACORE3000.

B1: anti-HMGB-1 mAb 3E8 (antibody, V domains shown)
VH: QVQLQQSGPELVKPGASVKISCKASGYAFSNYWMNWVKQRPGKGLEWIGRIYPGDGDMAYNGKFRGKATLTADKSSSTAYMQLSSLTSEDSAVYFCARSLDGYVGYVMDYWGQGTSVTVSS
VL: DIVMTQAAPSVPVTPGESVSISCRSSKSLLHRNGNIFLYWFLQRPGQSPQLLIYRMSNLASGVPDRFSGSGSGTAFTLRISRVETEDVGVYYCMQHLEYPFTFGSGTKLEIK
The term Kd denotes the equilibrium constant for the complex coming apart. Consider B1, for which the Kd was found to be 1.3 nM.

B2: anti-HMGB-1 mAb 3B1 (antibody, V domains shown)
VH: QVQLQQPGAELVKPGASVKLSCKASGYTFTSYWMHWVKQRPGQGLEWIGNIDPSDSETHYNQKFKDKATLTVDKSSSTAYMQLNSLTSEDSAVYYCAKRGYYGYDYWGQGTTLTV
VL: DVLMTQTPLSLPVSLGDQASISCRSSQSIVHSNGNTYLEWYLQKAGQSPKLLIYKVSNRFSGVPDRFSGSGSGTDFTLKISRVEAEDLGVYYCFQGAHVPRTFGGGTKLEIK
With B2, the Kd came out at 7.8 nM.
